From patent US7799901B2, “Modulators of the function of FAS receptors and other proteins” (Yeda Research and Development Co. Ltd., priority 1995, dated 2010) come the findings set out here.

“Also recorded” adds a separate entry of the source.

Data set [1] has as its target T1, MORT1 (Homo sapiens, UniProt Q13158).
T1 sequence (Q13158 1-208): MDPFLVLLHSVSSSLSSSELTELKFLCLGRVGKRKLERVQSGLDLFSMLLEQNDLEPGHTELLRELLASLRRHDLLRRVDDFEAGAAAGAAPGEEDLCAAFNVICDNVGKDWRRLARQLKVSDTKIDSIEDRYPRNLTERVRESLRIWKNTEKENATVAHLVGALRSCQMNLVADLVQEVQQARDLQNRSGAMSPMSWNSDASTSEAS
The data set is described as follows: Co-immunoprecipitation with co-expressed MORT1 from HeLa cell lysates. Format: binding. Also on record: expressed in transfected cells; host or cells: HeLa cells. The note with it: HeLa cells; FLAG-tagged MACH, HA-tagged MORT1. The text has this:
It has been shown also to contribute to, though not to suffice in, the self association of MORT-1 (see Example 1). […] To further assess the involvement of the MORT modules in these interactions, deletion mutants of MACHβ1, fused with the FLAG octapeptide (FLAG-MACHβ1), were expressed in HeLa cells and assessed for their binding in vitro to bacterial-produced […] fusion protein (GST-MORT-1). […] FIGS. 9A and 9B show the results (autoradiograms) of the in vitro interaction of MACHβ1 and its deletion mutants with MORT-1. Briefly, 35 [S] metabolically labeled MACHβ1, MACHβ1 fused at its N-terminus to the FLAG octapeptide (FLAG-MACHβ1), C-terminus truncation mutants of FLAG-MACHβ1, and, as a control, luciferase, were produced in transfected HeLa cells. […]
Testing further if MACHα1 can bind to MORT1 also within mammalian cells, MACHα1 or MACHβ1, fused with the FLAG octapeptide was expressed, together with HA epitope-tagged MORT1 molecules. ^35[S] metabolically labeled MACHα1 and MACHβ1 fused at their N-termini to the FLAG octapeptide (FLAG-MACHα1 and β1), and MORT1 fused at its N terminus to the HA epitope (Field et al, 1988) were expressed in HeLa cells. […] The proteins were analyzed by SDS-polyacrylamide gel electrophoresis (12% acrylamide), followed by autoradiography. […]

Data set [2] deals with T1, MORT1. As to the kind of experiment: Co-immunoprecipitation with MORT-1 from 293-EBNA cell lysates. Format: binding. Also on record: expressed in transfected cells; host or cells: 293-EBNA; HeLa (detail in the same paragraph). The note with it: lysates of human embryonic kidney 293-EBNA cells. As to the method: Testing further if MACHα1 can bind to MORT1 also within mammalian cells, MACHα1 or MACHβ1, fused with the FLAG octapeptide was expressed, together with HA epitope-tagged MORT1 molecules. ^35[S] metabolically labeled MACHα1 and MACHβ1 fused at their N-termini to the FLAG octapeptide (FLAG-MACHα1 and β1), and MORT1 fused at its N terminus to the HA epitope (Field et al, 1988) were expressed in HeLa cells. Immunoprecipitation of the proteins from lysates of the cells was performed using mouse monoclonal antibodies against the FLAG octapeptide (M2; Eastman Kodak), HA epitope (12CA5, Field et al, 1988) or the p75 TNF receptor (#9, Bigda et al, 1994) as a control. The proteins were analyzed by SDS-polyacrylamide gel electrophoresis (12% acrylamide), followed by autoradiography. […] The effectivity of interaction of MACHα1 with MORT1 appeared to be lower than that of MACHβ1.

For data set [3], the system named is HeLa cells. The data set is described as follows: Cell death on overexpression of MACH isoforms in HeLa cells. Format: cell-based. The note with it: FIG. 19. As to the method: (§1) In brief, 293-EBNA cells, MCF7 human breast carcinoma cells and HeLa HtTA-1 cells were grown in Dulbecco's modified Eagle's minimal essential medium supplemented with 10% fetal calf serum, nonessential amino acids, 100 U/ml penicillin and 100 μg/ml streptomycin. Cell tissue culture dishes (5×10^5 293-EBNA cells, 3×10^5 s MCF7 cells or 3×10^5 HeLa cells in 6-cm dishes) were transiently transfected, using the calcium phosphate precipitation method, with the cDNAs of the indicated proteins together with the β-galactosidase expression vector. In the experiments presented in FIGS. 14A-D and 15, each dish was transfected with 3.5 μg of the indicated MACH construct and 1.5 μg of pSV-β-gal. In the experiments presented in FIGS. 16A-D and 17-19, each dish was transfected with 2.5 μg of the indicated MACH or MORT1 construct (or, as control, empty vector) and 1.5 μg of pSV-β-gal. The cells were rinsed 6 to 10 h after transfection. The 293-EBNA and MCF7 cells were incubated for a further 18 h without additional treatment. The HeLa cells were incubated for 26 h after transfection and-then for 5 h in the presence of either anti-Fas.APO1 antibody (CH11, 0.5 μg/ml) or TNF (100 ng/ml), together with cycloheximide (10 μg/ml). The extent of cell death at the end of the incubation periods was assessed by determination of β-galactosidase expression, as described by Kumar et al, 1994.
To examine the involvement of the CED3/ICE homology region within the MACHα isoforms in their apoptopic effects, cells were transfected with the expression vector for the MACHβ1 isoform, which lacks the CED3/ICE homology region, as well as with expression vectors for MACHα3, which lacks an N-terminal part of the region, and with expression vectors for MACHα1 (C360S) and for a C-terminally truncated mutant of MACHα1 (MACHα1 (1-415)), which lacks one of the residues believed to be critical for CED3/ICE protease function (corresponding to Ser347 in ICE). […]

Data set [4] relates to breast carcinoma MCF7 cells. The data set is described as follows: Cell death on overexpression of MACH isoforms in MCF7 cells. Format: cell-based, human. The note with it: β-galactosidase-expressing cells with apoptopic morphology, 20 h after transfection. Here is the method:
To explore the involvement of MACH in cell-death induction, the effect of overexpression of various MACH isoforms on cell viability was examined. The test was performed by transfecting MACH expression vectors together with a β-galactosidase expression vector as a transfection marker into human embryonic kidney 293-EBNA cells and breast carcinoma MCF7 cells.
as §1
In particular, FIGS. 14A-D show the morphology of human embryonic kidney 293-EBNA cells transiently expressing the indicated MACH isoforms. The arrows (FIG. 14B) point to apoptopic cells. Photographs were taken 26 h after transfection. […] Data are from three independent experiments with the 293-EBNA cells and two independent experiments with the MCF7 cells.

Regarding “MACHα1: MACH isoform, cDNA SEQ ID NO: 14, amino acid SEQ ID NO: 7; contains CED3/ICE homology region”, the “binding to co-expressed MORT1 (co-immunoprecipitation)” value in data set [1] is recorded as “co-immunoprecipitated”.

B1: MACHα1 (C360S): MACHα1 mutant in which the catalytic cysteine Cys360 is replaced by Ser (protein)
chain: MDFSRNLYDIGEQLDSEDLASLKFLSLDYIPQRKQEPIKDALMLFQRLQEKRMLEESNLSFLKELLFRINRLDLLITYLNTRKEEMERELQTPGRAQISAYRVMLYQISEEVSRSELRSFKFLLQEEISKCKLDDDMNLLDIFIEMEKRVILGEGKLDILKRVCAQINKSLLKIINDYEEFSKERSSSLEGSPDEFSNGEELCGVMTISDSPREQDSESQTLDKVYQMKSKPRGYCLIINNHNFAKAREKVPKLHSIRDRNGTHLDAGALTTTFEELHFEIKPHDDCTVEQIYEILKIYQLMDHSNMDCFICCILSHGDKGIIYGTDGQEAPIYELTSQFTGLKCPSLAGKPKVFFIQASQGDNYQKGIPVETDSEEQPYLEMDLSSPQTRYIPDEADFLLGMATVNNCVSYRNPAEGTWYIQSLCQSLRERCPRGDDILTILTEVNYEVSNKDDKKNMGKQMPQPTFTLRKKLVFPSD
For the molecule B1, the “coimmunoprecipitation with MORT-1” value in data set [2] is reported as “coimmunoprecipitated”. The “cytotoxicity in transfected HeLa cells” value in data set [3] is “somewhat cytotoxic”. The “cell death of transfected MCF7 cells” value in data set [4] is on record as “No death”.

B2: MACHβ1: MACH isoform, cDNA SEQ ID NO: 4, amino acid SEQ ID NO: 5; lacks the CED3/ICE homology region (protein)
chain: MDFSRNLYDIGEQLDSEDLASLKFLSLDYIPQRKQEPIKDALMLFQRLQEKRMLEESNLSFLKELLFRINRLDLLITYLNTRKEEMERELQTPGRAQISAYRVMLYQISEEVSRSELRSFKFLLQEEISKCKLDDDMNLLDIFIEMEKRVILGEGKLDILKRVCAQINKSLLKIINDYEEFSKERSSSLEGSPDEFSNDFGQSLPNEKQTSGILSDHQQSQFCKSTGESAQTSQH
As for B2, the “coimmunoprecipitation with MORT-1” value in data set [2] was “coimmunoprecipitated”. Besides, in data set [3], the “cytotoxicity in transfected HeLa cells” value was “more pronounced; also recorded: rather significant cytoxic effect”. Also, the “cell death of transfected MCF7 cells” value in data set [4] is reported as “some slight cell death”. Moreover, the “binding to co-expressed MORT1 (co-immunoprecipitation)” value in data set [1] is listed as “bound; also recorded: co-immunoprecipitated”.
